Source: the DeepSol protein solubility set

experiment: soluble on expression in E. coli; label from the status in PepcDB or PDB records

Row | Sequence | soluble on expression in E. coli
1 | MGSDKIHHHHHHMRPETAIIEIHGQYRIHTEFYGNPAAQQTIILVNGSLSTTASFAQTVKYLQPHYNVVLYDQPYAGQSKPHNENHTPISKECEARILLELIERFRAEVVMSFSWGGVATLLALAQRPGRIRRAVVNSFSPQLNPAMLDYLHRGLDYLAACDRTQIGNLVNETIGRYLPQLFKRYNFRHVSSLDEHEYHQMHFHIREVLRLNADSYTESFAGIEIPMLFMNGELDIYTTPHEARQFGQLIRGAEFHTIRNAGHFIDVEHKAAWQQTQDALLAFLRPQRTQPLNPIYRPQPNGASVPLAALAS | not soluble
2 | TGASNYYIIFTSGTTGVPKGVQISHDNLVSFTNWLLQDFGLEEGARFLAQAPYSFDLSVMSIYPALALGGSLTPLPNEIINDFKQLFTRLPQLTIDVWVSTPSFIELCLMEPSFDGEHLPALRTFLFCGEELPKPTAEKLAARFPTAHIYNTYGPTEATVAISAIEITQEVLKSVQ | not soluble
3 | MSLSANDVNKDHLQTSIKQCENNGNGQEEGLKNPSKSGTTFYVPWEGSENFLSCQSKNGTPIMMVAYQTVLRDPLPGEEENVHLAARLLAGTVVKPGEVFSQNNKIGPYVIARGFKKGPTYIGTKLTTTIGGGVCKMASTLYNVAILSNLPVVERHAHSMPVPYVPYGQDATVSYGNKDLKFKNDTSSPIMIWAQGVDNILYVAFYSSTKPPEVEWHHEMLKLIKADKVYKMSSTLPKGREKLLMEGMDGAIVKSWVTVKNPDGTVIKRDLRKSYYNPMPHVYEKGKEGHHHHHH | soluble
4 | MARGPGPLGMPRPDTVAMPKRGKRLKFRAHDACSGRVTVADYANSDPAVVRSGRVKKAIANAVQQEVKSLCGLEASQVPAEEALSGAGEPCDIIDSSDEMDAQEESIHERTVSRKKKSKRHKEELDGAGGEEYPMDIWLLLASYIRPEDIVNFSLICKNAWTVTCTAAFWTRLYRRHYTLDASLPLRLRPESMEKLRCLRACVIRSLYHMYEPFAARISKNPAIPESTPSTLKNSK | not soluble
5 | MPKSNRRIVRARDSKGRFLPGKKAKSVASKSRSRSRSRSVVSRKTTRTNSLTRRRSSTKAPSSARQSRSRSRSRSRSRSKSRSTSSRRSRSRSARRVSFKRGRPASFAMKSPEEKTAAKKTAAKIILRVD | not soluble
6 | TVQVPVYSEQEYQLYLHDDAWTKAETDHLFDLSRRFDLRFVVIHDRYDHQQFKKRSVEDLKERYYHICAKLANVRAVPGTDLKIPVFDAGHERRRKEQLERLYNRTPEQVAEEEYLLQELRKIEARKKEREKRSQDLQKLITAADTTAEQRRTERKAPKKKLPQKKEAEKPAVPETAGIKFPDFKSAGVTLRSQRMKLPSSVGQKKIKALEQMLLELGVELSPTPTEELVHMFNELRSDLVLLYELKQACANCEYELQMLRHRHEALARAGVLGGPATPASGPGPASAEPAVTEPGLGPDPKDTIIDVVGAPLTPNSRKRRESASSSSSVKKAKKP | soluble
7 | INYRCPKRVITLINNIRKGDDQNVQVPKEDAIDGFVRLFIVDSNTTDKLELENKIRFQMAMLTHDEDWNIAEEVKTLTLEHDMAASRGGFDEFLLPLSSVSSLRDAALNGTSKNINFITSTLLPFIDAVEKDDSFEVARIIKSGSLLISDSNQSFLLNPIGTLKDIDSNVVEFKKILVNGKVTLHNVLSTIQKFELLSLPDELLVYLSDIEQGEPNEPESDTKLLSDVDKAWGLALNSSIGHVKNYAKYVNETLGYATHQGVKGLEYKRVMAVLDDKFKGFLFDYEKLFGAKDLTKKDIENEDLGKDSALSRTRRLFYVICSRAEQSLAVVAYSNDPIAIEKTAIESEWFSKDEIVLI | not soluble
8 | GMSFENYFPLWNDLNTAQKKLISDNLITQHVKKGTIIHNGNMDCTGLLLVKSGQLRTYILSDEGREITLYRLFDMDMCLLSASCIMRSIQFEVTIEAEKDTDLWIIPAEIYKGIMKDSAPVANYTNELMATRFSDVMWLIEQIMWKSLDKRVASFLLEETSIEGTNELKITHETIANHLGSHREVITRMLRYFQVEGLVKLSRGKITILDSKRLETLQRS | soluble
9 | NLNKVKFTEEHAIEVTNWKYEGKYSIYNLPPWEEIKKKNFSLAKEDKRKNFISFINDNKELIGFINLLDEGSSVFFGIGMKPNYCGMGIGKEIISLRLQECRNKYSTKPIVLNVRTWNMRAVKCYESQGFKIVETKVQKTH | not soluble
10 | MSLKVREEKLRTIIEWSEKNEDVRVLLLTSSLVNPLALVDEFSDLDIEFVFEDNTNYISDKSWTLKFGNPIAMIEEDESCFNHKHAMKMLLYEDGVKVDFKLYSKSKFIKETQEKELPEDWDIGYKILIDKDGITKQMLKPTYQISIIKKPSEKEFQNLINDFWWDTTYVAKCLVRDEIFYAKFMSETVIRTEYLIPLIEWHIASEHNWNITTNKYGRLFKKYLNQEMWAKTEQTFSGSDIKENWTALFSMTDLVSEIGTELSKKLEYKYPDKLENDIRKYLAGLKPKTEGHHHHHH | soluble
11 | MAFWQSKTLTEMTSQEWESLCDGCGKCCLNKLIDDETEELYYTNAACLLLDHQTTSCQHYSDRFRYVPQCTVITAQNVHELTWLPDSCAYRRLAAGRALPSWHPLLTGSKDAMHLAGMSIQGKVVDERRVKDIEDHIVLWPLKDLD | soluble
12 | VGAPLAVELDRSSPVPLYFQLAQTIENAIIGGELAPGDRFENELALAKRLNLSRPTTRRAIQELVDKGLLVRKRGVGTQVVQSAVHRPVELTSLFDDLARAGQSPTTKLLDYQVSVPAEDVAAELNLQPGAEVASIRRLRSTNGEPLALMTNHIPVDLAPDPEELEAHGLYHALRARGVHIRLARQRIGAKAASKAEASLLDEKTGAPLLTMNRTAFDDSGSAVEFGSHCYRASRYYFDTTVVDR | not soluble
13 | MKHLVICIALLTVGACCFAQQKKVASHKAASGNPVFQGWYADPEGIIYDDTYWIFPTWSDLYENQTFFDCFSSKDLVNWTKHASVLDTTAVKWAKKAMWAPSVIRKNGKYYIFFGANDVHEGEIGGIGVAVSDRPEGPYKDLLGKPLINEIVNGAQPIDQFVYNDNGHYYMYYGGWGHCNVVQLNDDFTGLVPFEDGTVYKEVTPENYVEGPFMFKKDGKYYFMWSEGGWGGPDYSVAYAISDSPFGPFKRVAKILQQDPSVATSAGHHSLLHAPGTDDYYIVYHRRPLNDNARDHRVTCIDKMTFDKDGFINPVKMTFEGVPAQKIKKSKKK | not soluble
14 | MSLSNGELAILVFGYPETMANQVIAYFQEFGTILEDFEVLRKPQAMTVGLQDKQFVPIFSGNSWTKITYDNPASAVDALLENGAVFNGVLLGVIPYTKDAVERLQKRKLTSSEDIGSGITTAAAETKHKDQGTIENDIPSQYMAKLDIKDGSNLFISTNTTSGTKVDPKKEQKKGVVGTVLRYFFGFNEGHHHHHH | soluble
15 | MAKLRVGIVFGGKSAEHEVSLQSAKNIVDAIDKTRFDVVLLGIDKAGQWHVNDAENYLQNADDPAHIALRPSAISLAQVPGKHQHQLINAQNGQPLPTVDVIFPIVHGTLGEDGSLQGMLRVANLPFVGSDVLSSAACMDKDVAKRLLRDAGLNIAPFITLTRTNRHAFSFAEVESRLGLPLFVKPANQGSSVGVSKVANEAQYQQAVALAFEFDHKVVVEQGIKGREIECAVLGNDNPQASTCGEIVLNSEFYAYDTKYIDDNGAQVVVPAQIPSEVNDKIRAIAIQAYQTLGCAGMARVDVFLTADNEVVINEINTLPGFTNISMYPKLWQASGLGYTDLISRLIELALERHTANNALKTTM | soluble
16 | MIRYWKLLFSLAVASVLLVGCGTKEHETTQAAKEEQTADDQKPSSDAPSSKNPSPSKEAKEQTSTKKNEEEQRAAGGGQPAASQPTISLSYQDGNQTVTKTATLQTSNNQHFSLYVLEGWTLDAEEPGADVLLHGDAFARIRLLSEGETNYEQLAQEHAQAVDANAARQQTNGLPKPFADAVWYTAQADGVTVHVIASAQPTPMLLTVHAPSNEDVLGAVLAMAATLQKQ | not soluble
17 | LAMEVGSDSITLTSANTSADAKSVQLFEDFSCSHCSELSLATDADMKTQIEDGNLVVEIKPLNFLDRENIDGHSTHALAAALAVADSNDATLYWNFRAFLMEDQSEIYNQWSDDDFADGVEALGADSSVVDAIRNGDNIQRAYDLATANGEELTEETGSL | not soluble
18 | MAHHHHHHMLRIYDPKETVAFYEKNFGMINIHTYHFDEYNFSLYFLITPPYDEEERKKIPPPNTIESEQYLWNLKTVCLELTHNHNSTEKLSNGNNDNDRGFGHIAFNCQDVTQFCDYLFKEKKVNFHKLPHETKMKSIGFALDPNDYWIEIVKRSSEVKWKDKEGIANFSQTMIRVKNPEKSLYFYLHILGMKLVHIKHASDFSLYFLKSPYVEGNKGGDISTKEKPEGEQNLPPYNFEELKKAYQSDEDYENLKTSWEPVLELTHNHGTENDDQFAYHNGNTEPRGFGHIGFLVDDLANYCQELEKLGIPFKKKIHEGQMNNIAFVYDPDNYLVELIQRGTTFGRN | not soluble
19 | MGSDKIHHHHHHMTSAANLVRITQPAISRLIRDLEEEIGISLFERTGNRLRPTREAGILFKEVSRHFNGIQHIDKVAAELKKSHMGSLRVACYTAPALSFMSGVIQTFIADRPDVSVYLDTVPSQTVLELVSLQHYDLGISILAGDYPGLTTEPVPSFRAVCLLPPGHRLEDKETVHATDLEGESLICLSPVSLLRMQTDAALDSCGVHCNRRIESSLALNLCDLVSRGMGVGIVDPFTADYYSANPVIQRSFDPVVPYHFAIVLPTDSPPPRLVSEFRAALLDALKALPYETI | not soluble
20 | MDNARIDLRSKYYVKPKADHPWLTRRTQSHQQVKPPKLPKKKPDPDKKD | not soluble
21 | MGSDKIHHHHHHMARKISDYHLKKREETQKKFIDLLAQNNYIHISGDMVNSKTKVKVRCRHNHTWQVNYEHFKKGTRCPECRIIEGSLKKRLNISTVKSRYALKGYEILSTYKNCHSKLKAKCPEGHIWEHLPSNFFKGEECFQCKGAKKYTVECAQAAFSDRGFIPLFDTYHHNKENLPFLCKEHIDLGVQYAPLHNMVRGLANCRKCYLLLFTGENSSRWKGGISSLNKTLREAVYEVWTKPSLEKYSFKCAITNSTKDLHVHHYKKNFSEIVKEALSNLSFEL | not soluble
22 | QYRPMSEKQFSRPVLIVPPQINKYYIFDLSPANSFVQYALKNGLSTFIISWRNPDIRHREWGLSSYVEAAEQAMNICRAISGAREVNLVGACAGGLTIAALLGHLQVKRQTRRVASATYMVSLLDSQIDSPATLFIDEQALEAAKRRSYQRGVLEGSEMSRVFSWMRPNDLIWTYWINNYLLGKSPPPFDILYWNNDTTRLPAALHGDLLDFFKHNPLSHAGGLEVCGTPIDLQKVTVDSFSVAGINDHITPWDSVYRSTLLLGGDRRFVLANSGHVQSILNP | not soluble
23 | MGSDKIHHHHHHMKVLVTGHRGYIGAVLTPMLHQRDHDVTGLDSDIFRSCTFEGTLDDTPTMEEDVRDIVIDDLAGFDAVIHLAGLSNDPLGDYRPNLTQQINCEASVTLARLAKRAGVPRFLFASSCSNYGAAGSGFLTESAAFNPVTPYGISKVEVEHAVAPMADECFSPTFLRASTAYGLSPRIRFDLVLNNLTAWAFTTGQIYLKSDGSPWRPIVHVEDIARAYIAALEADRELVHNQAFNVGLTTENYQVREIADIVQAIVPNSRIEFAADAGPDTRCYRVDCNYIGRRLHAFKPQWTARRGVEQLYEAFCSVGLSLEDFEGERFKRIAHVKKLIRNGELDEDLRRVSVPTMALAV | not soluble
24 | MNSRGLILTLGVVIAVAFAQQDSEVEREMMKRKSAYMRFGRSDGGNPMEMEKRKSAYMRFGKRSSGGDEQELVGGDDIDMEKRKSAYMRFGKRSGPQEDDMPMEKRKSAYMRFGKRSSDMEVIGNEGVDGDAHDLFKRKSAYMRFGKRSMGEEEDHDMMKRKSAYMRFGR | not soluble
